# Experiment: soluble fraction after stress (log2 fold change); higher = more stays soluble; pooled small domains, quantitative proteomics
# Settings: stress: pH 4
# In short: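 Aggregation propensity is read out as the fold change in how much of each domain remains soluble after acid stress. The custom small-domain libraries were pooled, held at pH 4 and analysed with high-throughput quantitative proteomics. On the log2 scale used, higher values mean more of the domain stayed soluble.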
row,Sequence,soluble fraction (log2)
1,HMEIKDQADAYGKMEPASAAAILSEMTNDLTLVAKILDSMQTSKSALILQNMKPTTAAQVTTKMTAMK,-0.11
2,HMIPSLTITVNEHSRQITRGTSLYTLRDALYPDADVLVVNGHPADSDRHLEEGDAVVLIRRGA,-0.394
3,HMLEKVLDNHIHKLRLQHKISQQELADAIGVSRKTISTVETGRFTPSVVIALKIAAHFSVSVEQVFTL,-0.187
4,HMFRSTLEELKHQISGFLKANQSQEFTAQNLADGLRMTSIAEYKRVVNAMDALVRDGELTFDAGKYQYNPN,0.252
5,HMNDTLGVNIKRLRKEKGMTQDEVAKAVYTTRYNILRYESGKMTPSSEVIERLEKALGVPTGSLAQ,-0.0881
6,HMTRNEFLTALRGRLSALPKEEQDAALKYYEEYFDEAESEEDAARQLGSPDSIAEKILADYA,-0.00949
7,HMAQELPYEKVTMNGKMFYVYHVKAGEGLYLISRTFSVNADEILKFNPSIENGLKSGQVLYIPIK,-0.403
8,HMKVSVPDIMDNSSLRQAEAKLRALGFRVTEPEYISGEKDWVYSVTYKGRTLNAGDKVPHEALLTLHVGNG,≥ 0.43
9,HMAAMDMFVKLDALDAELTEQLKALPAEPDDARVERGLALLTDYDHRIKALLTEIFGGENDFDKVL,-2.25
10,HMSVEVADITRAYYEGVGFEWWIRSVRLDPNELIVDNDDEGKLYRVPFEINGEEVTFGDPVEVKIRYE,-0.71
11,HMAVPFTIDVSQNGRYFIEEDNQVVEVSIGFLEDRFLRIIKSNPDIEVIIRGDAKASYESIAELLAVLQ,-0.782
12,HMDDADPYEILGVERDAEDAEIKRAYHDLIRENHPDRLMAEGLPQEMIDVANEKVAFINDAYDRIEKLRGM,-0.89
13,HMQSMEIDENEIPSIDKLSEYIEYFKRIYNALFDDKQLAITNIDVLERHFANNFNTLRFKMDE,-0.534
14,HMKEQLLLGFKVRSLRGIDLGFVKFIEGSAFQSFLKTDLTIIPNVPNYVKKIDNVKKIILVDWESD,-1.54
15,HMELLTNPLTGREVEVLTLMALGQTNHEIARQLYLATGTVKAHTSSIYRKLDVANRTEAVARARQLGIL,-0.448
16,HMAKNSVLTIELWNSTAFKWRKDTEPYSESMSVDFNRSVRLTDGISIMFSKFGFVPGIQYLIPLQT,-0.331
17,HMNVAVSEADAKAAALERVSGATEADIRMELELDDGYYVYEGDIIYQQKEYEFEIDAQTGKFLKWSEER,0.0965
18,HMQVFDSNEIDEVVKKVIENNPQAVADFKKGKSNALQFLAGQVMRETKGRFNPNVVQERIRLLLT,0.256
19,HMVIVMRKDADAASIEKVVSEVKSRGFMPHVSEGESRTLIGAIGPAPTEELREHFAGLAGVETVVRITK,-0.0319
20,HMDMDRRALLLALINDRYHASVAEFARAINKAPAQVHQWLSGNRALGNAGARDIEIRLNLAQGYFDH,0.282
21,HMIAWNFDTMKESLSEMERVDYQEFIKAFLSLELSISDRTILNQVYQDYMDEDDLSLISDELRV,-1.4
22,HMQTTVHLSPEEMVIMNALKQESPIDLPILRAQVEMSNKLWDTSMKNLSKLGQLKVEKIGEQVSVSLI,≥ 0.43
23,HMGVPTEQEIGKRILAWRKLRGMTLQQLADKAGVGLTTIHNLETGLWYAKMPTYLYIAEALGVSLDALIYG,0.0266
24,HMKTGNIVMVNLGWKGKYYSIKMFFPQVSKPSRKDVQDQIEKIYPGGKLYTFVVSNYEPGEPMLHA,-0.164
25,HMDLFSAVVHHIVGQQISTKAQATIWKRMRDEFGVVDAAAVLGAGVEKLQSFGMTFRKAEYITDFARKIE,-0.651
26,HMYPDNEQTLSKLAFEFFKKRNIPISQSNINQIVTKSLGDRENLYNELLKIENFSTSGKKLTDNVIKKLIN,0.176

row,Sequence,soluble fraction (log2)
1,HMEVMYFIYQQEEPMRIDKFLVNEMEDFSRNSIQIYIKDNHVLVNDKVVKANYILKKGDAISITIPDPI,-0.768
2,HMSIESPEEFNAKFPPGSEIYATNIQKNAIVQSPANAKGDVEILANSMRLTINFRFISKRDT,0.334
3,HMESWNRARILEKIRELHAQGVALNNASMRRLGYRGMMEAAARPQNFGSWEAAVRAAGIDYDRV,0.22
4,HMLDLPEISARIMEVFETKDRATISELSKLTGTNINTIKKHLSSLVENNYLIKHGKTRGAWYTKST,-0.271
5,HMELTVPDFTNMSLEDAINLAEKRDVRLEVTDSVFVKRLGRGFIYSQNPVAGSKVKKGRRILITINAIN,0.113
6,HMPTPASGSSGYINATNVNFRTGPATSYKSISKLAKNTAVTILGTSGNWYKVTVGSLGKNGYVFATYVTVS,-0.332
7,HMPTEAIVLQQIQIRQSPSGNSKSLQQILPGAKIKITSESSVKGWKQVSLDGGQKGWIPTAAIGL,0.302
8,HMTQEMPAEVKKKADAFNNAMDEENYTEAKAILAELEQNTAPSYPLLLQMQTRYAFETASWE,-0.974
9,HMSYPFSEDALKEKIREYLKHNRSINRKVLEAEFHIRKQTALNWLKKLEKSGFLIKEGSRNAPVYFLAE,0.0835
10,HMDGVTEYTVKSGDSFSAIINKHYNVNYDEKLMQAVAAYNNIEDMNKLQLGQIIKLPPKEQLNL,-0.118
11,HMQDKIWVVDETQLYPKLIEAMSEGKAVIHDGVAYWAEGSGKTGVIQHLPFKETTVQNVEEAIKLAQ,-0.543
12,HMTITPEVIVNHFKNLDLFFTKNGNYYEFKKKGTENILFKYGIYKQKPNIFVKIQRYPISSLSDLERIPI,-0.159
13,HMKLSKKVTDFLAQMPSKSISPKMLANNLGLADDAGDYKHLLKTIAQLEESKAIEVTAAGNIALPQPE,0.0669
14,HMKKGRIGSIIQYVREHPGVSSSEIITGLGLDISPATIRRDLTLLVAENKLSVEGQNKGTKYFVSPTYDMF,0.271
15,HMTDLNQIGERIKGLRDALGYSPEKMASILEQKVDDYLAYEEGTKDISLSVLQRIEKEFDIDLSTLLFGT,-1.17
16,HMDASKVKIEDLGLSTRTENALVAASIRTAGGLARKSEMDLLSTDGLGEKGITEIKKALSDLGLELK,0.246
17,HMSNYLKSVEVFDPITNKWSYVSAMKVRRGYVAVVATMDRLYAIGGYDGENYLSTVEMYNPDTN,0.0787
18,HMGDAVYSKVKDLVNTYNALAKQTGKSDLVSISQSRTWMVNDTKAHEVQWNKIGITIEDDQTLTI,-0.13
19,HMRKDRKVLMERGRHIFNDLLEKEGIVATNQLMTKLLASHHLRNRDELYLMLANDDISLSSKEIKDLS,0.22
20,HMSFMFEISVIRSQYNMQDPESKTGFYNAIAKKLLEFPEKLERDNYTEAVAREYMIPETDLKNLVNSMGG,-1.66
21,HMRTNNEITSYKLKSGKKRWKFQTYLGLDDKGQKVSVTRQGFRTYNEAISEYNKLRAQGTQGYQ,≥ 0.43
22,HMAAPPPLSDYRNMQEAEHIRNILLQHHGNVRRAAAALELSRPYLYQKMKQLGINIAELRELSLSHSS,0.161
23,HMRRGFGYVRKLPSGRWQASFVGPDLARHSAPHTFETKGDAEGWLGRRQADVVAGEWRPPVP,0.321
24,HMSAEDYLERIHELIESKGTAHVADIAQSLGVGKPSVTSMVQKLADEGYLNYEKYRSLTLTDSGRSIA,0.0599
25,HMNTPNYDVLYRGLADADAGQIMEALQKSNIPFKVDSHSGVLLVPADQVHEARLKLASQGLPRG,0.00323
26,HMVDPAEASKRAREYLDALPADDLKDVIRQFSATLAEGSVVLGYFQRSGLKSKVVKTALEQFVASTILSK,-0.268

row,Sequence,soluble fraction (log2)
1,HMLHQSLVVNAASGRVTVSLDIVPDEDNPYAVLRATDDSDEPLAQVRVAPSFKLNRASALAWIESQFARP,-0.128
2,HMEAEDLRDWVGARGIAYTALRPAGIAVVNGRRVDVVSEGAFVNRDDPVEVVRVEGRRIVVKP,-0.106
3,HMQNLISSDEAKNIALQHANLTDNQVTFIKVSKDYDDGIHIYEVEFHYNNREYNYDINAINGTILSYEQ,-0.173
4,HMDSTLTNEIYNELYRAITHQELKPGQNLTLTMLKKQFNVSHTPIREALTRLSADGLVTYHPNKGMKVT,0.222
5,HMQEHAHLWRLMEDNRSFKADYIAFENGIVLLQNLSSGKISQYPITDFSIEDQLLILKRHELTAHINAN,-0.0419
6,HMSTTYLNEGDRITLTDSVNIRTSMSETADRVGLAYQGDVVTVIMSYAEGWTKVSWNGQTGYAKTEYL,-0.0679
7,HMLEPEVLDLIGQVKSVHHFSVTQSHQLEKLVRHAHTLGFEIAELKSLLASSPNAKSLLSSLDQKLEPLRM,0.0896
8,HMRNANENTLKDLPVAVPNIHVSNIEEKKDFHLIQLEYSQEFDPREDLFNFAVNSSWVILKMTPT,≥ 0.43
9,HMSAPTAFSERELELLAGMRRGASNKAMAEQLFISVNTVKYHRANLMRKLGARDRNEALEVAARLG,-0.179
10,HMSRELVILGNSMLNNALKAFHVSPASIKKKHWDKLILDYHLESKNNILIDIALGKRINVMVAHQLTSIID,≥ 0.43
11,HMAQMDDPEMVLHIYNKMIQQRLFDTAVGYSYLKDLQEYLQSIPFIRKEDIFPIPVQHPQVEESLRKAK,0.0635
12,HMQVSITGYLGGEKIGLFDDAKFKALAAKQGIAIDYRKAGSPAMMDADRKGMDYLFPSSRAAVEYGNAKGV,0.144
13,HMLMNADVLVKYQEDHWIVISEKASQASDTFDKKEQAVERAKEIAKNKNSSVKVYKQDGTLQDTFDYS,0.306
14,HMATPAFEMYKVRRGDTPAGLAKEWGFPDMASFYRINPDARSDWKRGLQLVKPMNEMAVLQATA,0.109
15,HMHADIAATVVATMRQLGVLGLPRNYEIFYEALSGTNRELSLAVVSLSNRPTQDDLDRIGRRFFA,-0.426
16,HMVTFDEISQSLVRDVAARRSLSVQTLHAMVDRYNAGSSINAVANQYGIDRLKLREILIELGVHVAT,-0.44
17,HMNYLDVNIPVTSAVWMGKQLPEMGTLIYLTPDKDVEGMLFIKQATKDKPDGEYIEAKVLGYKEGRVLFDF,-1.48
18,HMSEEELETSGLVKRSAKGNLYDIFRHRVMVPIIDVRGAIIAFGGRVLDDSKPKYINSPETMVY,0.0468
19,HMYHNKFADLAGFIAFNEKNEEIFTFGKYKGQNVKEVFQRDIGYYGWLQNADFPLYTKKVFTAIQLRSR,-1.07
20,HMPETYVVFSKDGYANLRRGTTINSEILDVLDNGEYVTKLDEVGEWYRVEYADFDGGYIHKSQLKNI,-1.58
21,HMKPSTVSVPDVSGDKLSTAKMIIRKSGLKVGDVQKIEDDNVGAGKVVRTNPSAGSKKREGSSVDIFVASA,0.111
22,HMFNTWLGEIRSNTGANVRSGPDASAAIVDARPNETVVRVIGQSGNWLQIGDKQFVAQSLVAP,-0.0317
23,HMEIEIPEELQNKFAEIPELKTAFESLTPGRQRAYVLYFSQPKQSKTREARIEKYIPHILDGKGMN,0.0591
24,HMSRYQDIANDIEKDIIEKKYTRKLPEQFELAQKYQTSRVTIVHALKILQNKKLIRTVKGHGTFITS,≥ 0.43
